± gives the standard deviation.
Experiment: protein stability index of a GFP-peptide fusion (GPS, HEK-293T) (PSI 1-6); higher = more stable
[1] = treatment: DMSO, c terminus: a fixed tail appended
[2] = treatment: MLN4924 1 uM, 8 h, c terminus: a fixed tail appended
[3] = treatment: DMSO, c terminus: native
[4] = treatment: MLN4924 1 uM, 8 h, c terminus: native
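Further: 24-mer peptide tiles fused after GFP, lentivirally expressed, FACS-sorted into six equal bins by GFP/DsRed ratio, decoded by Illumina sequencing, PSI is the read-weighted mean bin number.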

What does the source list for LHRGQLSLFCLEDKELLCCSCQAD [TRIM35]?
protein stability index [1]: 2.68 ± 0.1; protein stability index [2]: 2.79 ± 0.31

For EKSGFSQHQNKSPPKVKAEDGMQC [DLC1], which protein stability index [1] is on record?
Its protein stability index is 5.19 ± 0.33.

What about the protein stability index [2] of the same sequence?
Its protein stability index is 5.22 ± 0.13.

Which protein stability index [1] does the source give for SSPVTTLTQTMHDLAGLGSETPKS [CDC25B] here?
The protein stability index was 4.97 ± 0.31.

What about the protein stability index [2] of the same sequence?
The protein stability index was 5.13 ± 0.14.

Which protein stability index [1] does the source give for RHCKKYWLISEEEKTQKNQCWKSL [FBXO3] here?
Its protein stability index is 2.5 ± 0.35.

And the protein stability index [2]?
Its protein stability index is 2.96 ± 0.4.

With SRAEPIRTTVFQYPVGWPPVQELP [ZMAT5] as the sequence, how does the protein stability index [1] read?
Its protein stability index is 2.38 ± 0.41.

And the protein stability index [2]?
The protein stability index was 2.82 ± 0.34.

For LSTNDKTIKLWKITERDKRPEGYN [PPP2R2C], which protein stability index [1] is on record?
Its protein stability index is 3.6 ± 0.28.

What about the protein stability index [2] of the same sequence?
Its protein stability index is 3.79 ± 0.61.

Which protein stability index [1] does the source give for ESNAAQYSPEALASIQNHVRKREA [EFHC1] here?
Its protein stability index is 4.87 ± 0.24.

What about the protein stability index [2] of the same sequence?
Its protein stability index is 4.7 ± 0.27.

Which protein stability index [1] does the source give for LHRTFDPHFLRVPCWKITLFVIVP [MOG] here?
The protein stability index was 3.17 ± 0.56.

And the protein stability index [2]?
The protein stability index was 3.08 ± 0.63.

Which results are given for RLENRYEALAKQVASEMRFVQDLV [DAPK3]?
protein stability index [1]: 2.5 ± 0.16; protein stability index [2]: 2.45 ± 0.25

What does the source list for ENIKGYYIIIVPLKKSRGKFIKPW [PTPRD]?
protein stability index [1]: 2.67 ± 0.86; protein stability index [2]: 1.86 ± 0.45

What does the source list for MTMQFISHRFPEDHDPTIEDAYKI [RIT1]?
protein stability index [1]: 3.24 ± 0.15; protein stability index [2]: 3.36 ± 0.22

Which protein stability index [1] does the source give for YISPELCEGKPYNQKSDIWALGCV [NEK8] here?
The protein stability index was 2.19 ± 0.41.

What about the protein stability index [2] of the same sequence?
Its protein stability index is 2.01 ± 0.19.

With KAVSEMRQKIWNNMPKDHPVSCCL [DYNC2LI1] as the sequence, how does the protein stability index [1] read?
The protein stability index was 2.41 ± 0.21.

What about the protein stability index [2] of the same sequence?
Its protein stability index is 2.46 ± 0.29.

With KIKEKYIDQEELNKTKPIWTRNPD [HSP90AB1] as the sequence, how does the protein stability index [1] read?
Its protein stability index is 3.71 ± 0.26.

What about the protein stability index [2] of the same sequence?
The protein stability index was 3.96 ± 0.24.

With ALWQVLARDCFATGRHYWEVDVQE [TRIM14] as the sequence, how does the protein stability index [1] read?
The protein stability index was 2.4 ± 0.65.

And the protein stability index [2]?
Its protein stability index is 2.4 ± 0.24.

What does the source list for SLGQDLRRLRQELLKTEALKRQAQ [DAPK3]?
protein stability index [1]: 3.09 ± 0.59; protein stability index [2]: 2.96 ± 0.14

Which results are given for LMMRMGILGRGLQEYQLPYQRVLP [TCAP]?
protein stability index [1]: 2.48 ± 0.4; protein stability index [2]: 2.28 ± 0.25

With LFTDRMATRSTTQSNRTSRLIGKK [WEE1] as the sequence, how does the protein stability index [1] read?
Its protein stability index is 4.25 ± 0.1.

And the protein stability index [2]?
Its protein stability index is 4.4 ± 0.063.

Which protein stability index [1] does the source give for SWYHWKGFEFSVPFTEMKLRPRNF [TNXB] here?
Its protein stability index is 2.47 ± 0.81.

And the protein stability index [2]?
The protein stability index was 3.15 ± 0.53.

Which results are given for CDKKAMVWDMRSGQCVQAFETHES [GNB5]?
protein stability index [1]: 3.67 ± 0.27; protein stability index [2]: 3.73 ± 0.29

With IKEVVEKREACHCEEVKMTVASEA [FAN1] as the sequence, how does the protein stability index [1] read?
Its protein stability index is 4.89 ± 0.25.

What about the protein stability index [2] of the same sequence?
The protein stability index was 4.95 ± 0.17.

For SRYRSLRPNRQLGSMVEIAKQLQA [TRIM39], which protein stability index [1] is on record?
Its protein stability index is 2.74 ± 0.28.

What about the protein stability index [2] of the same sequence?
The protein stability index was 2.92 ± 0.34.

For RPLGIRAGPNGTLFVADAYKGLFE [APMAP], which protein stability index [1] is on record?
The protein stability index was 2.66 ± 0.27.

And the protein stability index [2]?
Its protein stability index is 2.61 ± 0.44.

Which protein stability index [1] does the source give for VTGLMEATQMMVDIDGDVLVFLEL [RHOBTB2] here?
Its protein stability index is 3.31 ± 0.2.

And the protein stability index [2]?
The protein stability index was 3.29 ± 0.8.

For MEKFREDEGFIKEEERPLPEKEYQ [KCNA1], which protein stability index [1] is on record?
The protein stability index was 5.38 ± 0.32.

And the protein stability index [2]?
The protein stability index was 5.53 ± 0.31.

What does the source list for RNLGKVVHYAKVQLRFQHSQDVSD [PLEKHN1]?
protein stability index [1]: 2.49 ± 0.44; protein stability index [2]: 2.6 ± 0.33

With RRQTSMTDFYHSKRRLIFSKRKP [CDKN1A] as the sequence, how does the protein stability index [3] read?
Its protein stability index is 3.33 ± 0.28.

What about the protein stability index [4] of the same sequence?
The protein stability index was 3.71 ± 0.53.

With SECGKAFPRKSELTEHQRIHTGIK [ZNF649] as the sequence, how does the protein stability index [1] read?
Its protein stability index is 4.07 ± 0.19.

What about the protein stability index [2] of the same sequence?
Its protein stability index is 4.2 ± 0.062.

Which protein stability index [1] does the source give for MEHALREKAKAFWAMRRSYEAIAK [TRIM35] here?
The protein stability index was 2.46 ± 0.12.

What about the protein stability index [2] of the same sequence?
The protein stability index was 2.59 ± 0.45.

Which protein stability index [1] does the source give for SWWADLRALARNLIFGLITCLTGV [SPNS1] here?
Its protein stability index is 3.88 ± 0.43.

And the protein stability index [2]?
Its protein stability index is 3.92 ± 0.24.

Which protein stability index [1] does the source give for GLLKYCSLLVHGFKPACMSEIKNL [TENT5D] here?
The protein stability index was 3.48 ± 0.69.

And the protein stability index [2]?
Its protein stability index is 2.59 ± 1.2.

Which protein stability index [1] does the source give for QLESLGLLAPGEQSLPCTERKPAA [KISS1] here?
Its protein stability index is 4.69 ± 0.18.

What about the protein stability index [2] of the same sequence?
Its protein stability index is 4.73 ± 0.15.

Which protein stability index [1] does the source give for KSSIYESDFQIEPGFYATYESTLF [MIA2] here?
The protein stability index was 2.33 ± 0.52.

What about the protein stability index [2] of the same sequence?
The protein stability index was 2.3 ± 0.31.

Which protein stability index [1] does the source give for VHYAKVQLRFQHSQDVSDCYLELF [PLEKHN1] here?
The protein stability index was 2.88 ± 0.82.

What about the protein stability index [2] of the same sequence?
Its protein stability index is 2.76 ± 0.52.

Which protein stability index [1] does the source give for PVEDSHTADISSHFQEAIDFIDCV [DUSP5] here?
Its protein stability index is 4.54 ± 0.21.

What about the protein stability index [2] of the same sequence?
Its protein stability index is 4.44 ± 0.32.

What does the source list for EIPTGKKDHECSECGKTFIYNSHL [ZNF232]?
protein stability index [1]: 3.7 ± 0.21; protein stability index [2]: 3.49 ± 0.28

Which results are given for VEYFQQSAVAMYMLYEKQKQQNVA [ZBED1]?
protein stability index [1]: 2.4 ± 0.18; protein stability index [2]: 2.14 ± 0.28

Which protein stability index [1] does the source give for ARGTPSPKRMPSGRGGRDRFTAES [FSD1] here?
Its protein stability index is 4.43 ± 0.3.

And the protein stability index [2]?
The protein stability index was 4.69 ± 0.069.

For DRIRFTVNRRISIVGFGLYGSIHG [BTBD1], which protein stability index [1] is on record?
The protein stability index was 2.25 ± 0.61.

And the protein stability index [2]?
The protein stability index was 2.32 ± 1.2.

For WQLYYSKKLLDSWFTSTQEKKHK [JAGN1], which protein stability index [3] is on record?
Its protein stability index is 2.28 ± 0.49.

What about the protein stability index [4] of the same sequence?
Its protein stability index is 2.7 ± 0.29.

For NAPNSLGVSALCAICGDRATGKHY [HNF4A], which protein stability index [1] is on record?
The protein stability index was 2.84 ± 0.12.

What about the protein stability index [2] of the same sequence?
The protein stability index was 3.2 ± 0.15.

Which results are given for CSWKGATKQRIQDQKVPYIFRDNQ [CHIT1]?
protein stability index [1]: 2.87 ± 0.24; protein stability index [2]: 3.14 ± 0.62

What does the source list for FIPECNDDGTYSQVQCHSYTGYCW [SMOC2]?
protein stability index [1]: 2.79 ± 1; protein stability index [2]: 2.27 ± 0.45

With DPGQQFTWEHSNLEVNKPKNRYAN [PTPRD] as the sequence, how does the protein stability index [1] read?
The protein stability index was 4.99 ± 0.39.

What about the protein stability index [2] of the same sequence?
The protein stability index was 4.98 ± 0.26.

Source: the supplement of paper PMC10567573
